Results as given in patent US20230322953A1 (HARBOUR BIOMED SHANGHAI, published 2023).
Blank lines part the entries; values can stand above or below the binder they belong to.

Legend:
[1] = target: T1, human 4-1BB (tumor necrosis factor receptor superfamily member 9) (human, UniProt Q07011 24-255); test: cell-based or functional assay
[2] = target: T2, human BCMA (human, UniProt Q02223 1-184); test: FACS on HEK293T/hBCMA cells, Experiment 1
T2 construct: whole, on cells; also called hBCMA; TNFRSF17
T2 sequence (looked up): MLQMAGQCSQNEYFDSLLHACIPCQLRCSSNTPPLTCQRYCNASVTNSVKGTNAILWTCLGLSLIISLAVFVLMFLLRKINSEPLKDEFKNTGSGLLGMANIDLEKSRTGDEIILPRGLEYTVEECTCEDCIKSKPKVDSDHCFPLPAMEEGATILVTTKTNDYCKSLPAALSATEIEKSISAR

[3] = target: T3, cynomolgus monkey BCMA (cynomolgus monkey, UniProt A0A2K5UD97 1-183); test: FACS on HEK293T/cyno BCMA cells
T3 construct: whole, on cells; also called cyno BCMA

[4] = target: T2, human BCMA; test: FACS on NCI-H929 cells
[5] = target: T4, cynomolgus monkey 4-1BB (cynomolgus monkey); test: flow cytometry (FACS) on CHO-K1/cyno 4-1BB cells, Experiment 2
T4 construct: whole, on cells; also called cyno 4-1BB

[6] = target: T5, human PD-L1 (programmed death ligand 1) (human, UniProt Q9NZQ7 19-290); test: flow cytometry (FACS) on CHO-K1/hPDL1 cells, Experiment 2
T5 construct: whole, on cells; also called hPDL1; CD274

[7] = target: T4, cynomolgus monkey 4-1BB; test: flow cytometry (FACS) on CHO-K1/cyno 4-1BB cells, Experiment 1
[8] = target: T1, human 4-1BB (tumor necrosis factor …); test: flow cytometry (FACS) on CHO-K1/hu 4-1BB cells
[9] = target: T5, human PD-L1 (programmed death ligand 1); test: flow cytometry (FACS) on CHO-K1/hPDL1 cells, Experiment 1
[10] = target: T5, human PD-L1 (programmed death ligand 1); test: flow cytometry (FACS) on CHO-K1/hPDL1 cells, Experiment 3
[11] = target: T6, human CTLA4 on CHO-K1/hCTLA4 cells (human, UniProt P16410 36-223); test: flow cytometry on CHO-K1/hCTLA4 cells, Experiment 3
T6 construct: whole, on cells; CHO-K1 cell line highly expressing human CTLA4; also called human CTLA4 cell

[12] = target: T6, human CTLA4 on CHO-K1/hCTLA4 cells; test: flow cytometry competition: biotinylated human B7-1-Fc on CHO-K1/hCTLA4 cells, Experiment 2
[13] = target: T7, human 4-1BB (human, UniProt Q07011 24-255); test: flow cytometry, CHO-K1/hu 4-1BB cells
T7 construct: whole, on cells; also called CD137; TNFRSF9

B1: Anti-4-1BB monoclonal antibody urelumab analog, hIgG4 (S228P) (antibody, V domains shown)
VH: QVQLQQWGAGLLKPSETLSLTCAVYGGSFSGYYWSWIRQSPEKGLEWIGEINHGGYVTYNPSLESRVTISVDTSKNQFSLKLSSVTAADTAVYYCARDYGPGNYDWYFDLWGRGTLVTVSS
VL: EIVLTQSPATLSLSPGERATLSCRASQSVSSYLAWYQQKPGQAPRLLIYDASNRATGIPARFSGSGSGTDFTLTISSLEPEDFAVYYCQQRSNWPPALTFGGGTKVEIKR
IFN-γ EC50 (nM), T cells with MDA-MB-231 target cells [1]: 0.536 nM
IL-2 EC50 (nM), T cells with MDA-MB-231 target cells [1]: 2.94 nM

B2: PR001990 (bispecific antibody, human IgG1, lambda, L234A L235A)
light: QAVVTQEPSLTVSPGGTVTLTCRSSTGAVTTSNYANWVQQKPGQAPRGLIGGTNKRAPWTPARFSGSLLGDKAALTLLGAQPEDEAEYFCALWYSNLWVFGGGTKLTVLGQPKAAPSVTLFPPSSEELQANKATLVCLISDFYPGAVTVAWKADSSPVKAGVETTTPSKQSNNKYAASSYLSLTPEQWKSHRSYSCQVTHEGSTVEKTVAPTECS
heavy: EVQLLESGGGLVQPGGSLRLSCAASGFTFNTYAMNWVRQAPGKGLEWVSRIRSKYNNYATYYADSVKDRFTISRDDSKSTLYLQMNSLRAEDTAVYYCVRHGNFGNSYVSWFAYWGQGTLVTVSSASTKGPSVFPLAPSSKSTSGGTAALGCLVKDYFPEPVTVSWNSGALTSGVHTFPAVLQSSGLYSLSSVVTVPSSSLGTQTYICNVNHKPSNTKVDKKVEPKSCDKTHTCPPCPAPEAAGGPSVFLFPPKPKDTLMISRTPEVTCVVVDVSHEDPEVKFNWYVDGVEVHNAKTKPREEQYNSTYRVVSVLTVLHQDWLNGKEYKCKVSNKALGAPIEKTISKAKGQPREPQVYTLPPCREEMTKNQVSLWCLVKGFYPSDIAVEWESNGQPENNYKTTPPVLDSDGSFFLYSKLTVDKSRWQQGNVFSCSVMHEALHNHYTQKSLSLSPGK
chain: EVQLVETGGGLIQPGGSLRLSCAASGFTVSDNYMTWVRQAPGKGLEWVSVIFSGGNTYYADSVKGRFTISRDNAKNTLYLQMNSLRAEDTALYYCARRNYDDTRGTDVFDIWGQGTMVTVSSASEPKSSDKTHTCPPCPAPEAAGGPSVFLFPPKPKDTLMISRTPEVTCVVVDVSHEDPEVKFNWYVDGVEVHNAKTKPREEQYNSTYRVVSVLTVLHQDWLNGKEYKCKVSNKALGAPIEKTISKAKGQPREPQVCTLPPSREEMTKNQVSLSCAVKGFYPSDIAVEWESNGQPENNYKTTPPVLDSDGSFFLVSKLTVDKSRWQQGNVFSCSVMHEALHNHYTQKSLSLSPGK
Maximum MFI [2]: 13400
Maximum MFI [3]: 9170
Maximum MFI [4]: 1840

B6: Anti-PD-L1 91G3H5H3 (D54E), hIgG1 (N297A) (antibody)
light: DIQMTQSPSTLSASVGDRVTVTCRASQSIYIWLAWYQQKPGKAPNLLIYKASSLETGVPSRFSGSGSGTEFTLTISSLQPDDFATYYCQQYYGSSRTFGQGTKVEIKRTVAAPSVFIFPPSDEQLKSGTASVVCLLNNFYPREAKVQWKVDNALQSGNSQESVTEQDSKDSTYSLSSTLTLSKADYEKHKVYACEVTHQGLSSPVTKSFNRGEC
heavy: not shown
notes: hIgG1 (N297A); also called PR000265
EC50 [10]: 1.56 nM
Maximum MFI [10]: 47000 MFI
EC50 [9]: 0.781 nM
Maximum MFI [9]: 2000 MFI
EC50 [6]: 0.356 nM

B7: HER2xCTLA4 bispecific antibody molecule PR002672 (bispecific antibody, human IgG1)
chain 1: not shown
chain 2: not shown
chain 3: EVQLVESGGGLIQPGGSLRLSCAVSGFTVSKNYMSWVRQAPGKGLEWVSVVYSGGSKTYADSVKGRFTISRDNSKNTLYLQMNSLRAEDTAVYYCARAVPHSPSSFDIWGQGTMVTVSSGGGGSEVQLVESGGGLIQPGGSLRLSCAVSGFTVSKNYMSWVRQAPGKGLEWVSVVYSGGSKTYADSVKGRFTISRDNSKNTLYLQMNSLRAEDTAVYYCARAVPHSPSSFDIWGQGTMVTVSSEPKSSDKTHTCPPCPAPELLGGPDVFLFPPKPKDTLMISRTPEVTCVVVDVSHEDPEVKFNWYVDGVEVHNAKTKPREEQYNSTYRVVSVLTVLHQDWLNGKEYKCKVSNKALPAPEEKTISKAKGQPREPQVCTLPPSREEMTKNQVSLSCAVKGFYPSDIAVEWESNGQPENNYKTTPPVLDSDGSFFLVSKLTVDKSRWQQGNVFSCSVMHEALHNHYTQKSLSLSPGK
notes: Structure 18 Fab(cross Fd/LC)-Fc-VH-VH (trivalent asymmetric); PR000210 Fab, two PR000184 VH in tandem, linker GS_5
EC50 [11]: 2.79 nM
IC50 [12]: 0.983 nM

B8: Anti-4-1BB monoclonal antibody utomilumab analog, hIgG2 (antibody, V domains shown)
VH: EVQLVQSGAEVKKPGESLRISCKGSGYSFSTYWISWVRQMPGKGLEWMGKIYPGDSYTNYSPSFQGQVTISADKSISTAYLQWSSLKASDTAMYYCARGYGIFDYWGQGTLVTVSS
VL: SYELTQPPSVSVSPGQTASITCSGDNIGDQYAHWYQQKPGQSPVLVIYQDKNRPSGIPERFSGSNSGNTATLTISGTQAMDEADYYCATYTGFGSLAVFGGGTKLTVLG
notes: tied to PR000483 by the list of control molecules; also called PR000483
EC50 [7]: 0.347 nM
Maximum MFI [7]: 5390 MFI
EC50 [5]: 0.337 nM

B9: PR001760, anti-4-1BB heavy-chain antibody 1016P0011G10, hIgG1 (antibody, V domains shown)
VH: EVQLVESGGGVVQPGGSLRLSCAASGFTFSNYAMTWVRQAPEKGLEWVSSISGSGVSTYYADSVKGRFTISRDNSKNTLYLQMTRLTAEDTAVYFCAKEGSSETDDHYYNVDVWGQGTTVTVSS
notes: Heavy-chain-only antibody (HCAb), no light chain
EC50 [13]: 3.76 nM
Maximum MFI [13]: 83600

Now from value to binder, other results behind:

EC50 [2]: 14.8 nM
Maximum MFI [2]: 23900
Maximum MFI [3]: 22000
Maximum MFI [4]: 3840
B3: PR002935 (bispecific antibody, human IgG1, lambda, L234A L235A)
light: QAVVTQEPSLTVSPGGTVTLTCRSSTGAVTTSNYANWVQQKPGQAPRGLIGGTNKRAPWTPARFSGSLLGDKAALTLLGAQPEDEAEYFCALWYSNLWVFGGGTKLTVLGQPKAAPSVTLFPPSSEELQANKATLVCLISDFYPGAVTVAWKADSSPVKAGVETTTPSKQSNNKYAASSYLSLTPEQWKSHRSYSCQVTHEGSTVEKTVAPTECS
heavy: not shown
chain: EVQLVETGGGLIQPGGSLRLSCAASGFTVSDNYMTWVRQAPGKGLEWVSVIFSGGNTYYADSVKGRFTISRDNAKNTLYLQMNSLRAEDTALYYCARRNYDDTRGTDVFDIWGQGTMVTVSSASEPKSSDKTHTCPPCPAPEAAGGPSVFLFPPKPKDTLMISRTPEVTCVVVDVSHEDPEVKFNWYVDGVEVHNAKTKPREEQYNSTYRVVSVLTVLHQDWLNGKEYKCKVSNKALPAPIEKTISKAKGQPREPQVCTLPPSREEMTKNQVSLSCAVKGFYPSDIAVEWESNGQPENNYKTTPPVLDSDGSFFLVSKLTVDKSRWQQGNVFSCSVMHEALHNHYTQKSLSLSPGK

EC50 [5]: 1.55 nM
B4: PR004270, PD-L1×4-1BB bispecific antibody molecule of Fab-HCAb symmetric structure (bispecific antibody, human IgG1)
chain 1: EVQLVESGGGLVQPGGSLRLSCAASGFTFSSYWMSWVRQAPGKGLEWVANIKQEGSEKYYVDSVKGRFTISRDNAKNSLYLQMNSLRAEDTAVYYCARDRAVAGAFDIWGQGTMVTVSSASTKGPSVFPLAPSSKSTSGGTAALGCLVKDYFPEPVTVSWNSGALTSGVHTFPAVLQSSGLYSLSSVVTVPSSSLGTQTYICNVNHKPSNTKVDKKVEPKSC
chain 2: not shown
notes: Structure 1 Fab(CL)-VH-Fc; Fab of PR000265, VH of PR001760; linker H1_15, human IgG1 hinge (C220S); human IgG1 (L234A, L235A)
EC50 [6]: 0.963 nM

EC50 [7]: 1.86 nM
Maximum MFI [7]: 4980 MFI
B5: PR003549, PD-L1×4-1BB bispecific antibody molecule of IgG-VH tetravalent symmetric structure (bispecific antibody)
light: DIQMTQSPSTLSASVGDRVTVTCRASQSIYIWLAWYQQKPGKAPNLLIYKASSLETGVPSRFSGSGSGTEFTLTISSLQPDDFATYYCQQYYGSSRTFGQGTKVEIKRTVAAPSVFIFPPSDEQLKSGTASVVCLLNNFYPREAKVQWKVDNALQSGNSQESVTEQDSKDSTYSLSSTLTLSKADYEKHKVYACEVTHQGLSSPVTKSFNRGEC
heavy: EVQLVESGGGLVQPGGSLRLSCAASGFTFSSYWMSWVRQAPGKGLEWVANIKQEGSEKYYVDSVKGRFTISRDNAKNSLYLQMNSLRAEDTAVYYCARDRAVAGAFDIWGQGTMVTVSSASTKGPSVFPLAPSSKSTSGGTAALGCLVKDYFPEPVTVSWNSGALTSGVHTFPAVLQSSGLYSLSSVVTVPSSSLGTQTYICNVNHKPSNTKVDKKVEPKSCDKTHTCPPCPAPEAAGGPSVFLFPPKPKDTLMISRTPEVTCVVVDVSHEDPEVKFNWYVDGVEVHNAKTKPREEQYNSTYRVVSVLTVLHQDWLNGKEYKCKVSNKALGAPIEKTISKAKGQPREPQVYTLPPSREEMTKNQVSLTCLVKGFYPSDIAVEWESNGQPENNYKTTPPVLDSDGSFFLYSKLTVDKSRWQQGNVFSCSVMHEALHNHYTQKSLSLSPGEPKSSDKTHTPPPPPRTEVQLLESGGGLVQLGGSLRLSCAASGFTFSRYAMTWVRQAPEKGLEWVSSISGSGDDTYYGDSVKGRFTISRDNSQNTVYLQMNSLRAEDTAVYFCAKEKAGTTGDYYYNVDVWGQGTTVTVSS
notes: Structure 5; IgG PR000265, VH of PR001758 at C-terminus of heavy chain; linker H1_15-RT; human IgG1 (L234A, L235A, P329G)
IFN-γ EC50 (nM), T cells with MDA-MB-231 target cells [1]: 0.0695 nM
IL-2 EC50 (nM), T cells with MDA-MB-231 target cells [1]: 0.12 nM
EC50 [8]: 1.9 nM
Maximum MFI [8]: 1550 MFI
EC50 [9]: 1.56 nM
Maximum MFI [9]: 2220 MFI
